Source: US5912120A, “Cloning, expression and diagnosis of human cytochrome P450 2C19: the principal determinant of s-mephenytoin metabolism” (The United States of America as represented by the …, priority 1994, dated 1999)

Assays:
Format in all cases: biochemical
[1] = Mephenytoin 4'-hydroxylase assay, recombinant human CYP2C yeast microsomes (Table III)
Experimental: (§1) Purified or recombinant yeast microsomes (10-50 pmol) were preincubated with dilauroylphosphatidylcholine (15 μg per 50 pmol P450), P450 reductase (500 U per 50 mol P450), and human cytochrome b5 (2:1 molar ratio when added). The reconstituted mixture was preincubated for 5 min at 37° C., and then placed on ice. A final concentration of 0.4 mM radiolabelled S- or R-mephenytoin (20.7 mCi/mM and 20.9 mCi/mMol) was added to 50 mM HEPES buffer (pH 7.4) containing 0.1 mM EDTA and 1.5 mM MgCl2 for recombinant 2C proteins. The mixture was then incubated at 37° with shaking for 3 min, and the reaction started with the addition of 2mM NADPH and terminated after 30 min with an equal volume of methanol. […] Reaction volumes were generally 0.25 ml except when the volume of recombinant purified cytochrome or yeast microsomes was greater than 50 μl. In these cases, the volume was increased to 0.5 ml to limit the volume of glycerol from the purified preparation to <4% of the final volume.

[2] = as above; settings: recombinant yeast microsomes + P450 reductase, phospholipid, cytochrome b5 2:1; 0.4 mM substrate, HEPES pH 7.4, 37° C. 30 min; means ± SE
Experimental: as §1

[3] = Mephenytoin 4'-hydroxylase assay, purified recombinant P450 2C in reconstituted system (Table IV); settings: for stereospecificity of 4'-hydroxylation of mephenytoin: purified, reconstituted system (Table IV)
Experimental: Recombinant yeast microsomes were prepared from a 10-12 l culture, and recombinant P450s were purified by aminooctylsepharose chromatography as described by Iwasaki et al., J. Biol. Chem. 226:3380-3382 (1991). The Emulgen was then removed from protein by adsorption of the protein to a 4 g hydroxylapatite column (Hypatite C, Clarkson Chemical Company, Williamsport, Pa.) equilibrated with 10 mM potassium phosphate buffer (pH 7.2), 20% glycerol, 0.1 mM EDTA, and 0.1 mM DTT and washing the column with the same buffer until the absorbance at 280 nm returned to zero. The P450 was then eluted with […], and dialyzed overnight against 100 mM potassium phosphate buffer (pH 7.4, 20% glycerol and 0.1 mM EDTA. Absolute and CO difference spectra of purified P450s were determined in the same buffer but containing 0.2% Emulgen and 0.5% cholate.
Mephenytoin 4'-hydroxylase activity was measured by a modification of the radiometric HPLC assay described by Shimada et al., J. Biol. Chem. 261:909-921 (1986), as described below. Purified or recombinant yeast microsomes (10-50 pmol) were preincubated with dilauroylphosphatidylcholine (15 μg per 50 pmol P450), P450 reductase (500 U per […] P450), and human cytochrome b5 (2:1 molar ratio when added). The reconstituted mixture was preincubated for 5 min at 37° C., and then placed on ice. A final concentration of 0.4 mM radiolabelled S- or R-mephenytoin (20.7 mCi/mM and 20.9 mCi/mMol) was added to 50 mM HEPES buffer (pH 7.4) containing 0.1 mM EDTA and 1.5 mM MgCl2 for recombinant 2C proteins. The mixture was then incubated at 37° with shaking for 3 min, and the reaction started with the addition of 2mM NADPH and terminated after 30 min with an equal volume of methanol. Cytochrome b5 was not included in all CYP2C18 reactions, since it had no effect or produced a slight inhibition on the activity of this CYP protein. Reaction volumes were generally 0.25 ml except when the volume of recombinant purified cytochrome or yeast microsomes was greater than 50 μl. In these cases, the volume was increased to 0.5 ml to limit the volume of glycerol from the purified preparation to <4% of the final volume.
At the end of the incubation period, the reactions were terminated with an equal volume of methanol. The incubation mixture was centrifuged at 10,000 g for 10 min and an aliquot assayed directly using HPLC without extraction. Samples with particularly low activity were concentrated by lyophilization and redissolved in a small volume of methanol:water (1:1) before assay. The HPLC system consisted of a reverse phase C18 (10 μm) Versapak, 300 mm×4.1 mm column (Altech Associates, Deerfield, Ill.) using an isocratic solvent consisting of methanol:water (45:55) with a flow rate was kept of 1 ml/min for 25 min. Detection of radioactive peaks was accomplished using an on-line Flow-One radiochemical detector (Radiomatic Instruments Co., Tampa, Fla. Detection of the unlabeled 4'-hydroxymephenytoin authentic standard was performed using an on-line multiwavelength UV detector at both 211 and 230 nm.
Recombinant P450s were purified from yeast microsomes and assays performe

[4] = Tolbutamide hydroxylase assay, recombinant human CYP2C yeast microsomes (Table V); settings: 1 mg yeast microsomal protein + purified P450 reductase (1,000 units)
Experimental: Tolbutamide hydroxylase activity was measured according to Knodell et al., J. Pharmacol. Exper. […] Yeast microsomes (1 mg protein) were preincubated with 300 pmol hamster P450 reductase in 0.2 ml of the incubation buffer (below) for 3 min at 37° C. The reaction was then placed on ice and incubated in 0.2 ml of 50 mM HEPES buffer (pH 7.4) containing 1.5 mM MgCl2, 0.1 mM EDTA in a final volume of 1 ml and 1 mM sodium tolbutamide. The reaction was initiated with 0.5 mM NADPH. Human liver microsomes (0.22 mg protein) were incubated without reductase. Incubations with reconstituted recombinant P450s contained 50 pmol purified P450 enzyme, 150 pmol P450 reductase, and 15 μg dilauroylphosphatidyl-choline, and were performed in 100 mM potassium phosphate buffer (pH 7.4). Reactions were terminated after 60 min at 37° C. by the addition of 50 μl of 4N HCl, followed by extraction with 3 ml of water-saturated ethyl acetate. The ethyl acetate extracts were dried under nitrogen at 40° C., the residue resolubilized in 200 μl methanol, and 4-hydroxytolbutamide then assayed using HPLC by injecting 50 μl of the solubilized extract onto a μBONDAPAK C18 column (4.6×300 mm) using 0.05% phosphoric acid, pH 2.6: acetonitrile (6:4, v/v) as the mobile phase with a flow rate of 1 ml/min. The column eluate was monitored at 230 nm and rates of product formation were determined from standard curves prepared by adding varying amounts of 4-hydroxytolbutamide to incubations conducted without NADPH. […] Samples were analyzed in triplicate.

[5] = purified P450, reconstituted system

B1: 2C18-Thr^385 (29c): recombinant human P450 2C18 allelic variant, clone 29c (Thr at 385), in yeast microsomes; residue 2 not stated in Table III (protein, UniProt P33260 26-490, looked up)
Cytochrome P450 2C18: RGRLPSGPTPLPIIGNILQLDVKDMSKSLTNFSKVYGPVFTVYFGLKPIVVLHGYEAVKEALIDHGEEFSGRGSFPVAEKVNKGLGILFSNGKRWKEIRRFCLMTLRNFGMGKRSIEDRVQEEARCLVEELRKTNASPCDPTFILGCAPCNVICSVIFHDRFDYKDQRFLNLMEKFNENLRILSSPWIQVCNNFPALIDYLPGSHNKIAENFAYIKSYVLERIKEHQESLDMNSARDFIDCFLIKMEQEKHNQQSEFTVESLIATVTDMFGAGTETTSTTLRYGLLLLLKYPEVTAKVQEEIECVVGRNRSPCMQDRSHMPYTDAVVHEIQRYIDLLPTNLPHAVTCDVKFKNYLIPKGTTIITSLTSVLHNDKEFPNPEMFDPGHFLDKSGNFKKSDYFMPFSAGKRMCMGEGLARMELFLFLTTILQNFNLKSQVDPKDIDITPIANAFGRVPPLYQLCFIPV
Mephenytoin 4'-Hydroxylase Activity S ([1]; recombinant yeast microsomes + P450 reductase, phospholipid, cytochrome b5 2:1, 0.4 mM substrate, HEPES pH 7.4, 37° C. 30 min, means ± SE): 0.042 ± 0.004 nmol/min/nmol P450
Mephenytoin 4'-Hydroxylase Activity S ([1]; recombinant yeast microsomes, no b5): 0.034 ± 0.008 nmol/min/nmol P450
R/S Ratio ([1]; recombinant yeast microsomes, with cytochrome b5): 1.3
Mephenytoin 4'-Hydroxylase Activity R [2]: 0.054 ± 0.003 nmol/min/nmol P450

B2: 2C18: recombinant human cytochrome P450 2C18, variant not specified in the text (protein, UniProt P33260 26-490, looked up)
Cytochrome P450 2C18: B1 Cytochrome P450 2C18
stereospecificity of 4'-hydroxylation of mephenytoin [3]: stereoselective for the R-enantiomer

B3: 2C18-Asp^2 Thr^385 (29c-1a): recombinant human P450 2C18, clone 29c with correct Asp^2, Thr^385 (protein, UniProt P33260 26-490, looked up)
Cytochrome P450 2C18: B1 Cytochrome P450 2C18
R/S Ratio [3, 5]: 1.3
Mephenytoin 4'-Hydroxylase Activity S ([3]; purified P450, reconstituted system, triplicate, means ± SE, blank not subtracted): 0.116 ± 0.010 nmol/min/nmol P450
Mephenytoin 4'-Hydroxylase Activity R ([3]; triplicate, means ± SE, blank not subtracted): 0.147 ± 0.025 nmol/min/nmol P450
Tolbutamide Hydroxylase Activity (nmol/min/nmol P450) ([4]; adjusted for P450 content): 0.19 ± 0.02 nmol/min/nmol P450
Tolbutamide Hydroxylase Activity (nmol/min/mg protein) ([4]; means ±SE): 9.3 ± 0.7 nmol/min/mg protein

B4: 2C8 Purified from Human Liver: cytochrome P450 2C8 purified from human liver microsomes (protein, UniProt P10632 1-490, looked up)
Cytochrome P450 2C8: MEPFVVLVLCLSFMLLFSLWRQSCRRRKLPPGPTPLPIIGNMLQIDVKDICKSFTNFSKVYGPVFTVYFGMNPIVVFHGYEAVKEALIDNGEEFSGRGNSPISQRITKGLGIISSNGKRWKEIRRFSLTTLRNFGMGKRSIEDRVQEEAHCLVEELRKTKASPCDPTFILGCAPCNVICSVVFQKRFDYKDQNFLTLMKRFNENFRILNSPWIQVCNNFPLLIDCFPGTHNKVLKNVALTRSYIREKVKEHQASLDVNNPRDFIDCFLIKMEQEKDNQKSEFNIENLVGTVADLFVAGTETTSTTLRYGLLLLLKHPEVTAKVQEEIDHVIGRHRSPCMQDRSHMPYTDAVVHEIQRYSDLVPTGVPHAVTTDTKFRNYLIPKGTTIMALLTSVLHDDKEFPNPNIFDPGHFLDKNGNFKKSDYFMPFSAGKRICAGEGLARMELFLFLTTILQNFNLKSVDDLKNLNTTAVTKGIVSLPPSYQICFIPV
R/S Ratio [3, 5]: 1.6

B5: 2C9: recombinant human cytochrome P450 2C9, allele not specified in the text (protein, UniProt P11712 1-490, looked up)
Cytochrome P450 2C9: MDSLVVLVLCLSCLLLLSLWRQSSGRGKLPPGPTPLPVIGNILQIGIKDISKSLTNLSKVYGPVFTLYFGLKPIVVLHGYEAVKEALIDLGEEFSGRGIFPLAERANRGFGIVFSNGKKWKEIRRFSLMTLRNFGMGKRSIEDRVQEEARCLVEELRKTKASPCDPTFILGCAPCNVICSIIFHKRFDYKDQQFLNLMEKLNENIKILSSPWIQICNNFSPIIDYFPGTHNKLLKNVAFMKSYILEKVKEHQESMDMNNPQDFIDCFLMKMEKEKHNQPSEFTIESLENTAVDLFGAGTETTSTTLRYALLLLLKHPEVTAKVQEEIERVIGRNRSPCMQDRSHMPYTDAVVHEVQRYIDLLPTSLPHAVTCDIKFRNYLIPKGTTILISLTSVLHDNKEFPNPEMFDPHHFLDEGGNFKKSKYFMPFSAGKRICVGEALAGMELFLFLTSILQNFNLKSLVDPKNLDTTPVVNGFASVPPFYQLCFIPV
rate of 4'-hydroxylation of S-mephenytoin ([1]; recombinant yeast microsomes): 0.02 nmol/min/nmol
turnover number higher than the activity of 2C9 purified from human liver ([3]; S-mephenytoin 4'-hydroxylation): ~ 100 times
stereospecificity of 4'-hydroxylation of mephenytoin [3]: not stereospecific

B6: 2C9 Purified from Human Liver: cytochrome P450 2C9 purified from human liver microsomes (protein, UniProt P11712 1-490, looked up)
Cytochrome P450 2C9: B5 Cytochrome P450 2C9
R/S Ratio [3, 5]: 1.6
